Measured values from PMC8033513, “Targeting netrin‐3 in small cell lung cancer and neuroblastoma” (EMBO Molecular Medicine, 2021).

B1: chicken netrin‐2L (netrin‐2‐like) (ligand)
chain: not shown
notes: netrin-2 (netrin-2-like), chicken, used in place of human netrin-3 as its ortholog; Used because recombinant human netrin-3 was not soluble; also called NTN2L; NTN‐2L; source: recombinant

What was measured:
[1] = biological target: B1; experiment: BLI; OctetRED96; netrin-1 or netrin-2 coated on HIS1K biosensors, UNC5 ECDs in solution at 3.12-100 nM; 30°C, 1,000 rpm, PBS, 0.02% Tween-20, 0.1% BSA; 5 min association, 5 min dissociation; 1:1 binding model; settings: both partners purified
[2] = biological target: T1, extra‐cellular domain (ECD) of mouse DCC (mouse, UniProt P70211 26-1097); experiment: BLI; OctetRED96; ECDs of mNeogenin or mDCC coated on AHC biosensors, hNetrin-1 or chNetrin-2 in solution at 3.12-100 nM; 30°C, PBS, 0.02% Tween-20, 0.1% BSA with 1 µg/ml Dextran 5,000; 1:1 binding model; settings: both partners purified
T1 construct: DCC (deleted in colorectal carcinoma), mouse, extracellular domain; The Fc is inferred from the capture on AHC biosensors; also called mDCC; source: recombinant
T1 sequence (P70211 26-1097): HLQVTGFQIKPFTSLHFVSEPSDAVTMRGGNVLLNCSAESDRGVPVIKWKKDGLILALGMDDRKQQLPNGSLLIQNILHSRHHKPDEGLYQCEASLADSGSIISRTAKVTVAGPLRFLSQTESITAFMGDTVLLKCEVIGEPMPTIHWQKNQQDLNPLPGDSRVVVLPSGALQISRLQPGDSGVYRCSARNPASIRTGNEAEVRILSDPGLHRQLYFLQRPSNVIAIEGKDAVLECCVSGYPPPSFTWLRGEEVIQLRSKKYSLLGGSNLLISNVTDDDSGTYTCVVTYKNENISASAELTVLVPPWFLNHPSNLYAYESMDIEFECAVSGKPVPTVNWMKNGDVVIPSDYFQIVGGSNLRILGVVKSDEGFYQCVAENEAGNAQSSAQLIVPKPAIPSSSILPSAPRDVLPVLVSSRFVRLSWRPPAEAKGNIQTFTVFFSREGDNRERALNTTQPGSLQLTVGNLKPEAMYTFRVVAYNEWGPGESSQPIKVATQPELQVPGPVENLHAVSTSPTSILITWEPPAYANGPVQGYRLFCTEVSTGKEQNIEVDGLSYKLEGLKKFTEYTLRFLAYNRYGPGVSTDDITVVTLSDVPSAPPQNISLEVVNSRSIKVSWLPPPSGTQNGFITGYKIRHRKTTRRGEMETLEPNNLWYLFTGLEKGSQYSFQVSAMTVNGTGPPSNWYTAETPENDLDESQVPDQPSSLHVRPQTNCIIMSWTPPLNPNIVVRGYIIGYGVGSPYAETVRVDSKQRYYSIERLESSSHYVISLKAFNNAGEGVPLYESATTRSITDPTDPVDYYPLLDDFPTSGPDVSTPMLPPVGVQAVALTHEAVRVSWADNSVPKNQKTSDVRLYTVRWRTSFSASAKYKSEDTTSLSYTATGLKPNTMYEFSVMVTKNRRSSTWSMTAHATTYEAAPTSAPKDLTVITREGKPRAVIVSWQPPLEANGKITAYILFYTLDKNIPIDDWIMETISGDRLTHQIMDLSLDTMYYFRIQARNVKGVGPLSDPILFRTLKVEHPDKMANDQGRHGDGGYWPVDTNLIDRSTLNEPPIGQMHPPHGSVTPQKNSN

binding result [1] | binding result [2] | Binder
binds | – | extra‐cellular domain (ECD) of rat UNC5H2 (Fc fusion, UNC5H2 (UNC5B), rat, extracellular domain; The Fc is inferred from the capture on AHC biosensors in the antagonism test; also called rUNC5H2; UNC5‐B; source: recombinant) not shown
binds | – | extra‐cellular domain (ECD) of human UNC5H3 (domain or fragment, UNC5H3 (UNC5C), human, extracellular domain; it may be an Fc chimera like the other ECDs; also called hUNC5H3; UNC5‐C; source: recombinant) not shown
– | binds | B1
binds | – | extra‐cellular domain (ECD) of human UNC5H1 (domain or fragment, UNC5H1 (UNC5A), human, extracellular domain; it may be an Fc chimera like the other ECDs; also called hUNC5H1; UNC5A; source: recombinant) not shown
